As usually defined, the Km is the substrate concentration at which the rate is half of its maximum. The term kcat denotes the maximal rate divided by the concentration of active sites. The term kcat/Km denotes the turnover number divided by the Michaelis constant.

Common to all, as to assay type: protein assay
Substrate in series [1]: O=[N+]([O-])c1ccc(O[C@H]2O[C@H](CO)[C@@H](O)[C@H](O)[C@@H]2O)cc1
The series can be described thus: (§1) Activity of Bacteroides thetaiotaomicron GH92 alpha-mannosidase GH92 alpha-mannosidase 2199 assessed as mannose release after 16 hrs by HPLC.

Substrate in series [2]: OC[C@H]1O[C@H](O[C@H]2[C@@H](O)[C@H](O)[C@@H](CO)O[C@@H]2O)[C@@H](O)[C@@H](O)[C@@H]1O
The description is as §1.

Substrate in series [3]: O=[N+]([O-])c1ccc(O[C@H]2O[C@H](CO)[C@@H](O)[C@H](O)[C@@H]2O)cc1
The series can be described thus: (§2) Ratio of Kcat to Km for Bacteroides thetaiotaomicron GH92 alpha-mannosidase GH92 alpha-mannosidase 2199 assessed as mannose release after 16 hrs by HPLC.

Substrate in series [4]: OC[C@H]1O[C@H](O[C@H]2[C@@H](O)[C@H](O)[C@@H](CO)O[C@@H]2O)[C@@H](O)[C@@H](O)[C@@H]1O
Described as §2.

Substrate in series [5]: O=[N+]([O-])c1ccc(O[C@H]2O[C@H](CO)[C@@H](O)[C@H](O)[C@@H]2O)cc1
The series can be described thus: Ratio of Kcat to Km for Bacteroides thetaiotaomicron GH92 alpha-mannosidase GH92 alpha-mannosidase 3963 assessed as mannose release after 16 hrs by HPLC.

Substrate in series [6]: O=[N+]([O-])c1ccc(O[C@H]2O[C@H](CO)[C@@H](O)[C@H](O)[C@@H]2O)cc1
The series can be described thus: Activity of Bacteroides thetaiotaomicron GH92 alpha-mannosidase GH92 alpha-mannosidase 3963 assessed as mannose release after 16 hrs by HPLC.

Substrate in series [7]: O=[N+]([O-])c1ccc(O[C@H]2O[C@H](CO)[C@@H](O)[C@H](O)[C@@H]2O)cc1
The series can be described thus: (§3) Ratio of Kcat to Km for Bacteroides thetaiotaomicron GH92 alpha-mannosidase GH92 alpha-mannosidase 3962 assessed as mannose release after 16 hrs by HPLC.

Substrate in series [8]: OC[C@H]1O[C@H](O[C@H]2[C@@H](O)[C@H](O)[C@@H](CO)O[C@@H]2O)[C@@H](O)[C@@H](O)[C@@H]1O
The description is as §3.

Substrate in series [9]: O=[N+]([O-])c1ccc(O[C@H]2O[C@H](CO)[C@@H](O)[C@H](O)[C@@H]2O)cc1
The series can be described thus: (§4) Activity of Bacteroides thetaiotaomicron GH92 alpha-mannosidase GH92 alpha-mannosidase 3962 assessed as mannose release after 16 hrs by HPLC.

Substrate in series [10]: OC[C@H]1O[C@H](O[C@H]2[C@@H](O)[C@H](O)[C@@H](CO)O[C@@H]2O)[C@@H](O)[C@@H](O)[C@@H]1O
The description is as §4.

B1: Alpha-1,2-mannosidase (BT_2199) (Bacteroides thetaiotaomicron), Q8A5N9 (protein)
chain: MVTRLFFLSICFPFLLTSCQQSKKTVEFVDYVNPLMGTESTFAFSHGNTYPAVAVPWGMNFWSPQTGENGSGWMYTYTDSLMRGFRQTHQPSPWINDYGTFSIMPLAGELKMSHKERLVPFSHQQEKATPYNYSVTFNNGLQTSLSATSRGAVFEVSFPEKEDQYVVVDAYNGGSSITIEPEKRLVKGATRYNNGGVPDNFANYFMMEFSHPVIEYGTYNGDTLLHHQTDVAADYTCAYLKFDVPAGEKLTIRTASSFISPEQAAINFNREVADADVQLISGKAREQWNNYLGRVEAEGGTDEQLRTFYSCLYRTLLFPREFYEFDSQGNPVYYSPYDGNVHDGYMYTDNGFWDTFRAVHPLFTLLYPEVSERVTQSIINAYNESGFMPEWASPGHRGCMIGNNSVSLLVDAWMKGIQTVDAEKALEAMIHQTQARHAEIASVGRDGFEYYDKLGYVPYPEVPEATAKTLEYAYADWCIARFAESLGKQDIADQYYQKAPNYRNLYYPEHGFMWTKDAKGNWRDRFDATEWGGPFTEGSSWHWTWSVFHDPEGLSELMGGHEPMIARLDSMFVAPNTYNYGTYGFVIHEIAEMVALNMGQYAHGNQPVQHAIYLYDYIGQPWKTQYHLRNVMDKLYNSGSKGYCGDEDNGQTSAWYVFSAMGFYPVCPGMPEYAIGSPLFKKVTLHLPEGKNFVVSAADNAADRPYIRKALLNGQEFTRNYLTHDELKQGGELNLSMDSVPNQQRGTQPADFPYSYSK
Turning to B1, the Michaelis constant (Km) in series [1] came to 7500 µM. Also, the kcat in series [1] is 0.105 s⁻¹; in series [2] it was 40 s⁻¹. Moreover, the kcat/Km is 14 M⁻¹ s⁻¹ in series [3] and 60000 M⁻¹ s⁻¹ in [4].

B2: Glycoside hydrolase family 92 (BT_3963) (Bacteroides thetaiotaomicron), Q8A0Q8 (protein)
chain: MNKMKKKVLMMTMAAVTLSAVAQQPVDYVNPIIGTNGMGHTFPGACTPFGWVQLSPDTDTIPHNVNGAYQKNAYEYCAGYQYRDKTIVGFSHTHLSGTGHSDLGDILLMPAVGDVKLNPGRADHPEEGYRSRFDHATEKATPGYYEVMLDDYGIKAQLTATQRTGVHKYTFPKGKDGHLILDLVHGIYNYDGKVLWANLRVENDTLLTGYRITNGWARTNYTYFAISLSQPIKDYGYKDKEKVLYNGFWRRFKLEKNFPEITGRKIVAYFNFETAKDPELVVKVALSAVSTEGAVKNLRAEASGKSFEQLAEAARTDWNNELDHFEIEGTPDQKAMFYTSLYHTMINPSVYMDVDGSYRGLDHNIHQAKGFTNYTIFSLWDTYRAEHPFLNLVKPERNADMVESMIKHEQQSVHGMLPIWSLMGNENWCMSGYHAVSVLADAITKGVFSNVDEALSAMVSTSTVPYYEGVADYMKLGYIPLDKSGTAASSTLEYAYDDWTIYQTALKAGNKEIADTYRKRALNYRNIYDTSIGFARPRYSDGTFKKEFDVLQTYGEGFIEGNSWNFSFHVPHDVFGMIDLMGGEKTFVQKLDELFSMHLPEKYYEHNEDITEECLVGGYVHGNEPSHHVPYLYAWTSQPWKTQYWLREILNKMYKNDINGLGGNDDCGQMSAWYLFSVMGFYPVCPGTDQYVLGAPYLPYLKLTLPNGKTLEIKAPGVSDKKRYVQSLKLNGESYDKMYITHEDILKGGVLEFKMSASPNKRRGVSVQDKPYSLTNGIN
Regarding B2, the kcat/Km in series [5] is 0.567 M⁻¹ s⁻¹. In [6], the Km worked out at 790 µM and the kcat came out at 0.00045 s⁻¹.

B3: Glycoside hydrolase family 92 (BT_3962) (Bacteroides thetaiotaomicron), Q8A0Q9 (protein)
chain: MNKQKLLSITMTLLLGVSSIFAQKQPVDYVNPLMGTDSKISLSNGNTYPAIALPWGMNFWMPQTGKMGDGWAYTYASDKIRGFKQTHQPSPWINDYGQFSIMPMTKQLKIDQDSRASWFSHKAEKATPYYYSVYLSEYNMTTEIAPTERCAYFRFTFPEASDAYVVVDAFDRGSYVKVIPEENKIVGYTTRNSGGVPQNFRNYFVIEFDKPFTFNKVWADYHLVETHLELQSNHVGAAIGFSTKKGEQVHAKVASSFISPEQAELNLKEIGNKTFEQTKEAGRKAWNDVLGRIKVEDDDENRMRTFYSCLYRSVLFPRMFHEVNAKGETVHYSPYNGEIRPGYMFTDTGFWDTFRCLFPFVNLIYPSMGEKMQEGLLNTYLESGFFPEWASPGHRGCMVGNNSASVVADAFMKNVTKADAEKMYEGLLKGANSVHPRVSTTGRRGYEYYNKLGYVPYDVKINENAARTLEYAYDDWCIYRMGEKLGRPAEELELYKSRSQNYRNLFDPETKLMRGKNADGTFQTPFNPFKWGDAFTEGNSWHYTWSVFHDVQGLADLMGGRKMFVSMLDSVFNLPPIFDDSYYGGVIHEIREMEIANMGNYAHGNQPIQHMIYLYNYAGEPWKAQYWLREVMNRLYFATPDGYCGDEDNGQTSAWYVFTALGFYPVCPGSNEYVMGAPYFKKATITLENGKKLEISAPKNSDANRYIRSLNYNGKNYTKNYLNHFDLLKGGRLVFDMDNKPNKGRGINESDFPYSFSRDNK
Consider B3, for which the kcat/Km came to 56.7 M⁻¹ s⁻¹ in series [7] and 31700 M⁻¹ s⁻¹ in series [8]. For the same protein, the Km is 5000 µM in series [9] and 430 µM in [10]. For the same protein, the results for the kcat in series [9] and in series [10] were 0.283 s⁻¹ and 13.7 s⁻¹, respectively.

The values above are taken from ChEMBL document CHEMBL1250451, “Mechanistic insights into a Ca2+-dependent family of alpha-mannosidases in a human gut symbiont” (Nat Chem Biol, 2010).
